From patent publication US20130344509A1 (published 2013)

Experiments:
[1] = biological target: T1, human TROP-2 (hTROP-2) protein endogenously expressed on the cell surface of human cancer cell lines (human, UniProt P09758 27-323); assay: FACS on PK-59 cells, 0.1 µg antibody
T1 construct: on PK-59, BxPC-3 and other human cancer cell lines, or in human tissue sections; also called TACSTD2; GA733-1
T1 sequence: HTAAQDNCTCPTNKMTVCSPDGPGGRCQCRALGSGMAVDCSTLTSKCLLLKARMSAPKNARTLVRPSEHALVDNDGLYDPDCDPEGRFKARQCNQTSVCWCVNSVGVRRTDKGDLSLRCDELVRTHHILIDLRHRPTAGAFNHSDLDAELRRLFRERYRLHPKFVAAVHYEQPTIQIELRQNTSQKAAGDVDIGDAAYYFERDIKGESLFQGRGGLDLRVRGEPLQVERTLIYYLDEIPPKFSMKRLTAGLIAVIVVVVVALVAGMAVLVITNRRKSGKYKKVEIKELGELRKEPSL
Experimental: (§1) Cancer cells were removed from a culture dish by a trypsin treatment, and a cell suspension was then prepared (cell density: 2×10⁶ cells/mL). An anti-hTROP-2 monoclonal antibody (0.1 μg) was added to 100 μL of the cell suspension, and they were then reacted at 4° C. for 20 minutes. The reaction solution was washed with PBS, and it was then reacted with PE-labeled anti-mouse IgG (BD Biosciences Pharmingen) (0.1 μg) (at 4° C. for 30 minutes). Thereafter, the resultant was analyzed by FACSCalibur (Becton, Dickinson and Company).
(§2) Subsequently, the reactivity of the generated anti-hTROP-2 monoclonal antibodies with human cancer cell lines (in which an hTROP-2 protein was endogenously expressed on the cell surface) was examined by FACS analysis.

[2] = biological target: T1, human TROP-2 (hTROP-2) protein …; assay: FACS on BxPC-3 cells, 0.1 µg antibody
Experimental: as §1, §2

[3] = biological target: T2, Table 9 peptide No. 26; assay: PEPSCAN/CLIPS peptide ELISA, 1 µg/mL antibody
T2 sequence (peptide): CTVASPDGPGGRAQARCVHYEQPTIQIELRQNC

B1: anti-hTROP-2 monoclonal antibody clone K5-116-2-1 (antibody, V domains shown)
VH: QVQLQQPGAELVRPGASVKLSCKASGYTFTSYWITWVKQRPGQGLEWIGNIYPSDSYTNYNQKFRDKATLTVDKSSSTAYMQLSSPTSEDSAVYYCSALFDYWGQGTTLTVSS
VL: DILLTQSPAILSVSPGERVSFSCRASQSIGTSIHWYQQRTNGSPRLLIKYASESISGIPSRFSGSGSGTDFILSINSVESEDIADYYCQQSNSWPFTFGSGTKLEIK
notes: mouse IgG2a; hybridoma FERM BP-11253
- mean fluorescence intensity relative to PE-labeled anti-mouse IgG alone [1]: 122 times
- mean fluorescence intensity relative to PE-labeled anti-mouse IgG alone [2]: 121 times
- binding of K5-116-2-1 [3]: 1220
